Assay results as given in the supplement of paper PMC9170038.

System: MS2 coat protein
Experiment: apparent KD of MS2 coat protein; designed switch direction (-1 OFF switch, 1 ON switch): -1; higher = weaker reporter binding
How it was run: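 The buffer was Tris-HCl pH 7.5 with KCl, MgCl2, BSA, DTT, tRNA and Tween-20. In it, SNAP-549-labelled MS2 coat protein was titrated in doubling steps from 0.7 or 1.5 nM to 3 µM over chip-bound RNA switches transcribed by stalled E. coli RNA polymerase on Illumina chips. Apparent KD is the per-design median over clusters of curve fits to normalised fluorescence.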

[1] = Eterna round: R95, input ligand: FMN 200 uM
[2] = Eterna round: R95, input ligand: microRNA oligo, concentration not stated
[3] = Eterna round: R95, input ligand: none
[4] = input ligand: microRNA oligo, concentration not stated

| Sequence | apparent KD of MS2 coat protein (input ligand: FMN 200 uM) [nM] | apparent KD of MS2 coat protein (input ligand: none) [nM] | apparent KD of MS2 coat protein [1] [nM] | apparent KD of MS2 coat protein [2] [nM] | apparent KD of MS2 coat protein [3] [nM] | apparent KD of MS2 coat protein [4] [nM] |
| --- | --- | --- | --- | --- | --- | --- |
| AUAUUGAUAGUAAGGAUAUGCGUGUGUGUAGUGAUGCAGAAGGUACAUGAGGAUCACCCAUGUAUUAAUGUGUG [LRO-BmodExc4-10-Oppy's Opus] (Eterna round: R97, puzzle: Brourd's mod of Exclusion 4) | 20.5 | 16.7 | – | – | – | – |
| CGUGACUGAGGAUAUCUAUGGUAUCACAUGAGGAUCACCCAUGUCCAGCGAAAGCUGGAGGGAGAAGGCAGUCACG [Fiskers Ex 5 - 32] (puzzle: Exclusion 5) | – | – | 117 | 186 | 250 | – |
| AGAGUGGUGCGAGGAUAUACAUGAGGAUCACCCAUGUAAACGUGUGAGGCAAAGCCUCACACGAUGUAGAAGGCGCACUACUCA [Mat - Exclusion NG 2 - Mod of JL - D15] (Eterna round: R96, puzzle: Exclusion NG 2) | 17.3 | 15.8 | – | – | – | 9.9 |
| UUUCUCUGGGCGUCUUCUUACAUGAGGAUCACCCAUGUUUCGCAGGAUAUGCUAUAGUGUUAGAUGCAGAAGGGCGUUUGUUUU [JR_ExcNG3_Sub079] (Eterna round: R96, puzzle: Exclusion NG 3) | 262 | 92.5 | – | – | – | 85.8 |
| UCCUCACUUGAGGAUCACCCAAGUCAGGAUAUUCACUGAACUGCGUAGCAGUUCGGCCGAAGAAGGGAUUCGGG [Lacequla] (Eterna round: R97, puzzle: Exclusion 1) | 54.8 | 107 | – | – | – | – |
| AAUUCACAUGAGGAUCACCCAUGUGAGGAUAUGGAUUCGCUGGCCGUAGCCAGUGGAUCCAGAAGGCGCGUGAU [JL-ex1-4.27] (Eterna round: R97, puzzle: Exclusion 1) | 60.5 | 46.8 | – | – | – | – |
| UUCCUCAUAACAUGAGGAUCACCCAUGUAUUAUUUGAUAACUGAGGAUAUACUAAUAAUGUUUAUGUAGAAGGCAGAUACAGAU [JR_ExcNG3_Sub015] (Eterna round: R96, puzzle: Exclusion NG 3) | 623 | 59.1 | – | – | – | 69.1 |
| AAGAGUGCAGGAUAUACUUGGUAGGGUAAGAUGAGUGAGUGACAUGAGGAUCACCCAUGUAGAAGGGCAGAGAG [JR_Exclu2_Sub056] (puzzle: Exclusion 2) | – | – | – | 107 | – | – |
| GGUGGACAUGAGGAUCACCCAUGUGAGGAUAUCGGCCGGCUAGUGGUGGCUGGCUUCUCGAGAAGGCGCAUAGU [Exclusion 1 V76] (puzzle: Exclusion 1) | – | – | – | 46.8 | – | – |
| CUUAUGUGAGGAUAUGCCUGGCCGUGAGGCCAAAUUUAUAAGCAGAAGGCACAUGAGGAUCACCCAUGUGCGGG [jl-ex4-4.69 ViennaUCT mod] (Eterna round: R97, puzzle: Exclusion 4) | 115 | 317 | – | – | – | – |
| CCGAAAAGGAAGGAUAUGCUAGACGAAAGUCUAGCAGAAGGUCCUACAUGAGGAUCACCCAUGUGGUCCUUCGG [Mat - Exclusion 6 - Eli Mod - D35] (Eterna round: R97, puzzle: Exclusion 6) | 1730 | 448 | – | – | – | – |
| ACGUGAUAUCUGUCGGUGGACAUGAGGAUCACCCAUGUAAGCUUUUUGCCCGUCUUAUAACCCGGUGACAGACCUUC [Orlequla] (puzzle: Sensor v3, turn-off variant 1) | – | – | 32.4 | 340 | 53.6 | – |
| ACAUGAGGAUCACCCAUGUCAGGUGGGUCCUCUCCGGCUGUUGAGGAUAUAGUCCGGUAUCCGCGCUAGAAGGUGAGGGCCGGC [Aenatbe mod 17] (Eterna round: R96, puzzle: Exclusion NG 3) | 29.8 | 33.7 | – | – | – | 31.1 |
| GUGUAACAAGGAUAUACAUGAGGAUCACCCAUGUGAAUAAGAUUGAAUAAGAUAAAGUGUAGAAGGUGUAGUGU [Excluse me!!! 9 - Jieux - Exclusion 3] (puzzle: Exclusion 3) | – | – | 32.5 | 31.6 | 37.1 | – |
| UUUUUCGAACAAGCUUCGUACAUGAGGAUCACCCAUGUUUUUAGAUUUGAGUAGGUUUGUAUGGAAGUUCGUCUUAU [JR_SV3TOV1_Sub087] (puzzle: Sensor v3, turn-off variant 1) | – | – | 32.3 | 159 | 34.3 | – |
| UCUUAUCUAUAGGAUAUAGGAGCAGAAUUGCGAUUAGAAGGAUGGACAUGAGGAUCACCCAUGUGCAUGGGCUU [EX6 B.6] (Eterna round: R97, puzzle: Exclusion 6) | 17.9 | 30.6 | – | – | – | – |
| CAAUAACAAGCGAGAUCCUACAUGAGGAUCACCCAUGUGCUCGUCUUAUAAAGUACUAUCACGAAAGUGAUAGUACA [Mat - Sensor v3 - turn-off var 1 - Eli Mod - D63] (puzzle: Sensor v3, turn-off variant 1) | – | – | 19.6 | 34 | 14.9 | – |

| Sequence | apparent KD of MS2 coat protein (input ligand: FMN 200 uM) [nM] | apparent KD of MS2 coat protein (input ligand: none) [nM] | apparent KD of MS2 coat protein [1] [nM] | apparent KD of MS2 coat protein [2] [nM] | apparent KD of MS2 coat protein [3] [nM] | apparent KD of MS2 coat protein [4] [nM] |
| --- | --- | --- | --- | --- | --- | --- |
| GGCACACAUGAGGAUCACCCAUGUGAGGAUAUGUUAGUUUCGGCCAAAGCCGAAAUUAACAGAAGGCACAUGCC [JR_Exclusion1_Sub021] (puzzle: Exclusion 1) | – | – | – | 13.3 | – | – |
| GCUAAACAAGGAUAUACAUGAGGAUCACCCAUGUAGGCAUAGGGUGAAGCACGCCUAUGUAGAAGGUGUCCGCA [Eternabot (Original) Solution 34] (Eterna round: R97, puzzle: Exclusion 3) | 80.6 | 185 | – | – | – | – |
| AGUACUAUCACGAAAGUGAUAGUACAAAUAAGCUUUAGAACAUGAGGAUCACCCAUGUCCUCUUAAGCUCGUCUUAU [Mat - Sensor v2 -ver2- JL mod - D56] (Eterna round: R96, puzzle: Sensor v2, turn-off variant 2) | 14.8 | 17.1 | – | – | – | 143 |
| CUUUUGUGAGGAUAUUAGUAGUAAAAAAAUAAAAUUACUACUGAGAAGGCACAUGAGGAUCACCCAUGUUCCUU [salish99_ex4_r3_039] (puzzle: Exclusion 4) | – | – | – | 14.1 | – | – |
| GCAAGCUUUAUCACUAUGAACAUGAGGAUCACCCAUGUAUAAGGUAUUACUUUUGGGCUCUUUAGUGCUCGUCUUAU [JR_STOV1_Sub033] (Eterna round: R97, puzzle: Sensor, turn-off variant 1) | 26.2 | 26.7 | – | – | – | – |
| UUUAAUUUUUUUUUUUUACAAGCUUUUUGCUCGUCUUAUACAUGAGGAUCACCCAUGUAAGUGGAGGGUAAAUUAUC [JMF 87] (puzzle: Sensor v3, turn-off variant 2) | – | – | 19.4 | 39.4 | 15.2 | – |
| GUACUGACAGGAUAUACAUGAGGAUCACCCAUGUCCUUAUGCUGACAAAAGUCAGCAAGUAGAAGGGUCUGUAC [Omei Ex3 Model Bachelor's Dilema v2] (Eterna round: R97, puzzle: Exclusion 3) | 1270 | 88.4 | – | – | – | – |
| ACAUGAGGAUCACCCAUGUCUGGCUGGUCCGUCUCGGCUGUCGAGGAUAUGGCUCGGUGUCCGCGCUAGAAGGCGGGAGCUGGU [Aenatbe mod 79] (Eterna round: R96, puzzle: Exclusion NG 3) | 195 | 77.5 | – | – | – | 45 |
| ACCUCUGAGGAGGAUAUACAGUGCGAAAGGACAGUAGAAGGCUUCACAUGAGGAUCACCCAUGUCGAAAAGUGA [EX6 #80] (Eterna round: R97, puzzle: Exclusion 6) | 127 | 92.6 | – | – | – | – |
| AAUUUAACAUAGGAUAUCGAAUUUAUUAUUUAACGAGAAGGAUGAACAUGAGGAUCACCCAUGUGGUAUCAUGG [Mat - Exclusion 6 - JL Mod - D22] (puzzle: Exclusion 6) | – | – | 100 | 109 | 174 | – |
| AAUGAUUGACGAGGAUAUUGUGGUGAAACACGACGAGAAGGCGUAUGUCACAUGAGGAUCACCCAUGUGAGCUUUGUGGAUAUA [Ex NG1 #68] (Eterna round: R96, puzzle: Exclusion NG 1) | 34.7 | 34.1 | – | – | – | 24.1 |
| CCACCGCCGUCAGGAUAUAACAUGAGGAUCACCCAUGUGUGAAGCAUGAGAGACUCUAACAAGUGUUAGAAGGGACUUAUUGCG [Eternabot solution 36] (Eterna round: R96, puzzle: Exclusion NG 2) | 176 | 75.8 | – | – | – | 63.2 |
| GAUCAUGCAGGAUAUACAUGGAACAUGUAAACAUGAAUUUCACAUGAGGAUCACCCAUGUAGAAGGGCAUGAUC [Omei Ex2 A13] (Eterna round: R97, puzzle: Exclusion 2) | 314 | 2200 | – | – | – | – |
| AAUUAGCAAGCGAGAUCCCACAUGAGGAUCACCCAUGUGCUCGUCUUAUAUAAGGUACUGUACGAAAGUACGGUACC [Mat - Sensor, turn-off var - Eli Mod - D31] (Eterna round: R97, puzzle: Sensor, turn-off variant 1) | 16.4 | 16.4 | – | – | – | – |
| ACAUUCAGAGGAUAUGCGCAUAGAUAAGACUUUUUUUUUUAACAUGAGGAUCACCCAUGUAGAAGGCUGUAACC [Ex2 #48] (Eterna round: R97, puzzle: Exclusion 2) | 23.8 | 24.3 | – | – | – | – |
| UGCUAGUCAGGAUAUACGAACAUGUCAAAAGACGUGAAGGGACAUGAGGAUCACCCAUGUAGAAGGGACUAGCA [salish99_ex2_r3_005] (puzzle: Exclusion 2) | – | – | 158 | 27.1 | 23.9 | – |
